Molecular target: T1, TNKS2 ARC5 (Homo sapiens, UniProt Q9H2K2)
T1 construct: followed by TNKS2 ARC5 (1 μL, 100 μM stock); His6-GST; made in house; host or cells: E. coli
T1 sequence (Q9H2K2 whole entry, looked up): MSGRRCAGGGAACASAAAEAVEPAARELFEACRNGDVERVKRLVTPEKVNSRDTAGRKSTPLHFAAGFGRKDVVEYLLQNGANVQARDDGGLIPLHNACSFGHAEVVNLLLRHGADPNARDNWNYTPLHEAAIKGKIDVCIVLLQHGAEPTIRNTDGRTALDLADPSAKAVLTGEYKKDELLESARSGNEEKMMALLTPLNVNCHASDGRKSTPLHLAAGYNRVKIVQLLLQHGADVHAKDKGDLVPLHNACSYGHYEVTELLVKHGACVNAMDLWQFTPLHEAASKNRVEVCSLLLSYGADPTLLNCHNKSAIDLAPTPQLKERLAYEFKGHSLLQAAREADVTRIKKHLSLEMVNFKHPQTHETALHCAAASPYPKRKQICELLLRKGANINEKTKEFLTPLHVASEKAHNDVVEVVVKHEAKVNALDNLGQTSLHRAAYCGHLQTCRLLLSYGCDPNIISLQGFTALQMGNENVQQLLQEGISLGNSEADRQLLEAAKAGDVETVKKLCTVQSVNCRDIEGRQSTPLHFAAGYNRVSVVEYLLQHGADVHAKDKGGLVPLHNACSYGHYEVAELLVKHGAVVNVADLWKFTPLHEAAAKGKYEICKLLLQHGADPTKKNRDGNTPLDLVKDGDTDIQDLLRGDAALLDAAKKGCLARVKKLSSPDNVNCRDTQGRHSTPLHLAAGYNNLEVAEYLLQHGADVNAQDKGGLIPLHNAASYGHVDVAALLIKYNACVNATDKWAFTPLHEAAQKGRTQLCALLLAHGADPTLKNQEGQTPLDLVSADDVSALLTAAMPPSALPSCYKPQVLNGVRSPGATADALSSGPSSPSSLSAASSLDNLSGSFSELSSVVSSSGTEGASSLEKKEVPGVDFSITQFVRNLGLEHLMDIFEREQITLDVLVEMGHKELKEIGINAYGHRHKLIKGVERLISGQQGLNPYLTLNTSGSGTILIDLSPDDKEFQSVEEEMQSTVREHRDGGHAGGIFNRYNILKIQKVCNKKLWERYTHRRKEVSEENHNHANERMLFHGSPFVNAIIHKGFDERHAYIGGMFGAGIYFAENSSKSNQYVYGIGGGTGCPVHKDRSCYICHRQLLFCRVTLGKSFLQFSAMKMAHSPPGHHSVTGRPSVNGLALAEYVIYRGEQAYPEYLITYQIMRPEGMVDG
Assay: Differential scanning fluorimetry (DSF, thermal shift)
Assay type: binding
Conditions: ARC 20 μM + 3BP2 TBM peptide 200 μM, inflection point method
Procedure: Therefore, we chose TNKS2 ARC5 for screening by DSF, anticipating the largest signal window for measuring changes in Tm upon fragment binding.
We screened 1869 compounds in duplicate at a concentration of 500 μM, which we considered a reasonable compromise between having a sufficiently high concentration to identify weak binders while minimising the likelihood of false positives through fragment precipitation/aggregation and non-specific binding. The final DMSO concentration was 5%. We calculated melting temperatures using both the inflection point and the maximum peak of first derivative data methods. Both methods generally agreed, unless the melt curve was biphasic or misshapen, with slightly lower variability for the […] Tm determination method (see Materials and Methods for experimental and analysis details).
We determined the melting temperature for the unbound ARC (Tm, 0) from the mean of 12 reference melting curves per plate, with 5% DMSO only. We calculated the change in melting temperature (ΔTm) by subtracting the mean Tm, 0 from Tm, compound. We tested compounds in duplicate, defining fragments as hits if they conferred a ΔTm outside two standard deviations (2σ) from the mean, in one or both replicates. To check for consistency between plates, we ran triplicate peptide controls; however, we excluded peptide ΔTm values from the calculation of the mean ΔTm to avoid skewing the results. We observed mean ΔTm values (IP/1st derivative methods) of −0.127/−0.331 °C and σ as 0.997/1.19 °C. A hit cut-off of 2σ gave absolute shifts of +1.87/+2.05 °C for compounds that stabilised and −2.13/−2.71 °C for compounds that destabilised the ARC (Fig. 2B).
For the screen, a C1000 thermal cycler (Bio-Rad) was used to record melt curves. SYPRO Orange was purchased as a 5000 × stock in DMSO from Sigma Aldrich. The ICR fragment library was available as 100 mM stocks in DMSO, and dispensed (25 nL) using an ECHO acoustic liquid handling system into white 384-well PCR plates (Framestar, 4titude). Wells were backfilled with DMSO (225 nL). Buffer (2.75 μL, 25 mM HEPES-NaOH pH 7.5, 100 mM NaCl, 2 mM TCEP) was added, followed by TNKS2 ARC5 (1 μL, 100 μM stock) and then SYPRO orange dye (1 μL, 25×). The plate was centrifuged after the addition of each reagent (1 min, 1000 × g). Final assay concentrations were as follows: TNKS2 ARC5 (20 μM); fragment (500 μM); SYPRO Orange dye (5×); DMSO (5% v/v) in a total volume of 5 μL. Peptide control wells (3BP2 TBM 16-mer, 200 μM, sequence LPHLQRSPPDGQSFRSW with C-terminal tryptophan added for photometric concentration measurements, the N-terminus acetylated and the C-terminus amide-capped) were plated in triplicate, and there were 12 blank wells per plate, with DMSO only (250 nL, 5% v/v). Melt curves were recorded from 20–95 °C, with the temperature ramped by 0.5 °C every 15 s. Data were analysed using Vortex (Dotmatics) software and melting temperatures calculated from both the inflection point and the maximum peak of 1st-derivative data. Data points were excluded if the melt curve was poor, i.e., if there was no fluorescence signal above baseline, high fluorescence intensity throughout, or if the melt curve was shallow (<1000 rfu difference between baseline and peak maximum). The unbound melting temperature was determined from the mean of 12 reference melting curves, with 5% DMSO only. The change in melting temperature (ΔTm) was calculated by subtracting the mean Tm, 0 from Tm, compound. Compounds were tested in duplicate, and fragments were defined as hits if they gave a ΔTm outwith 2 σ from the mean in one or both replicates.
For the experiment shown in Fig. 2A, ARC and 3BP2 TBM peptide concentrations were 20 and 200 μM, respectively, in 50 mM HEPES-NaOH pH 7.5, 100 mM NaCl, 2 mM TCEP and a total volume of 25 μL. SYPRO Orange was added at 5×. Data were recorded from 4–95 °C, with the temperature ramped by 0.5 °C every 15 s, using a CFX384 thermal cycler (Bio-Rad). […]

## LPHLQRSPPDGQSFRSW [3BP2 16-mer peptide, 16-mer TBM peptide derived from 3BP2, W added for A280, N-terminus acetylated, C-terminus amide-capped; positive control, reference compound]
  ΔTm: 4.14 °C

Reference: publication PMC6911004, “Fragment-based screening identifies molecules targeting the substrate-binding ankyrin repeat domains of tankyrase” (Scientific Reports, 2019)
